Test results: US12331106B2, “Anti-angiopoietin-2 antibodies that induce Tie2 activation” (Institute for Basic Science, priority 2018, dated 2025)

T1: hAng2 (Homo sapiens, UniProt O15123)
T1 sequence (O15123 19-496): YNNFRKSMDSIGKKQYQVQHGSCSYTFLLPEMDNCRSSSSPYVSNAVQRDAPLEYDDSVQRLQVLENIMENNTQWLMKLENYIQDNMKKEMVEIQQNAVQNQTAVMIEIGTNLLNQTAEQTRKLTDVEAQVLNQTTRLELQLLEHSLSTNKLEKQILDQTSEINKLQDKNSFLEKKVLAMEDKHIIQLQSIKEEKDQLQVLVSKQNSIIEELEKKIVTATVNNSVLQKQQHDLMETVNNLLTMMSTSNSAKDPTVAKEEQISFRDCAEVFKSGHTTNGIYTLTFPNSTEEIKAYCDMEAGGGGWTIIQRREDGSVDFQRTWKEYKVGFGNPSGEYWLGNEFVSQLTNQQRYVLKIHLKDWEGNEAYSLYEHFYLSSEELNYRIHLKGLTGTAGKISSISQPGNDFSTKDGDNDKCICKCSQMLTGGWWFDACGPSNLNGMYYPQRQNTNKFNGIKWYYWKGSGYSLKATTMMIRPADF

B1: 4B9H11: humanized anti-Ang2 human IgG1 antibody from mouse 4B9; VH SEQ ID NO: 43, VL SEQ ID NO: 44 (antibody, V domains shown)
VH: QVQLVESGGGLVKPGGSLRLSCAASGFTFSDYYMYWIRQAPGKGLEWVSTISVGGSFTYYPDSVKGRFTISRDNAKNSLYLQMNSLRAEDTAVYYCARDWGLRPWFVYWGQGTLVTVSS
VL: DIQMTQSPSSLSASVGDRVTITCKASQDVSTAVAWYQQKPGKAPKLLIYWASTRHTGVPSRFSGSGSGTDFTLTISSLQPEDFATYYCQQHYSTPPTFGQGTKVEIK
modifications: human IgG1 constant regions; VH; VL

Legend:
[1] = test system: LLC (Lewis Lung Carcinoma) tumor; assay: Tumor growth inhibition in LLC subcutaneous model; assay type: in vivo, C57BL/6 mice; conditions: LLC s.c.; antibody 10 mg/kg i.p. every 2-3 days; Cpt 3 mg/kg i.p. once
Procedure: 2C8H11 anti-Ang2 antibody was tested for its ability to inhibit tumor growth in LLC (Lewis Lung Carcinoma) cell line tumor model. Specifically, LLC cell line (ATCC) was cultured in DMEM (GIBCO™) supplemented with 10% FBS (GIBCO™). LLC cells (1×10^6 in 100 μl of PBS) were subcutaneously injected into 6˜8-week-old C57BL/6 mice (Jackson Laboratory) which were anesthetized with a mixture of Ketamine and Xylazine. When the volume of the tumors reached 50˜100 mm^3, the mice were intraperitoneally administered with 10 mg/kg of 2C8H11 antibody every 2˜3 days. Cisplatin (Cpt) was injected intraperitoneally once at a dose of 3 mg/kg in both monotherapy and combination therapy groups. The changes in tumor volume was tracked over the following days. Tumor volume (V) was measured using the formula: V=(width^2×length)/2 V=(width^2×length)/2
The experiment was performed in 4 groups: Fc (control group), Fc+Cpt group, 2C8H11 group, and 2C8H11+Cpt group. […] Meanwhile, combined treatment with 2C8H11 and Cpt delayed tumor growth by 47% compared with Fc.

[2] = test system: downstream signaling of the Tie2 receptor (Akt phosphorylation) in HUVECs; assay: Akt phosphorylation in HUVECs by humanized anti-Ang2 antibodies (immunoblot); assay type: cell-based, human; conditions: hAng2 1 μg/ml, 30 min, antibody 0.5 μg/ml, maintained until 50 μg/ml
Procedure: To investigate whether the humanized anti-Ang2 antibodies induce the downstream signaling of the Tie2 receptor in endothelial cells, HUVECs (LONZA™) were treated with human Ang2 protein together with humanized anti-Ang2 antibody. Then, the level of Akt phosphorylation, the main downstream signaling protein of Tie2 receptor was measured by immunoblotting. To compare the degree of Akt activation, cells were treated with full-length hAng2 (R&D® Systems) alone or antibody alone in the experiment.
Specifically, HUVEC cells (1×10^5 cells/ml) were cultured in EGM-2 (LONZA™) at 37° C. in 60 mm culture dish. Cells of 90% confluency were incubated with EBM-2 (LONZA™) for 4 hrs. The serum-starved HUVECs were treated with the mixture of anti-Ang2 antibody and hAng2 protein (1 μg/ml, R&D® Systems), and further incubated for 30 min. The cells were washed with cold PBS, treated with lysis buffer, and lysed at 4° C. for 20 min. Then, the cell lysates were prepared by centrifugation at 13000 rpm for 15 min. 5× SDS sample buffer was added to the cell lysate and the mixture was boiled at 95° C. for 5 min. Then, the mixture was subjected to SDS-PAGE and subsequent Western blotting.
To investigate the phosphorylation of Akt, the membrane was blocked with 5% skim milk-containing TBST for 1 hr at RT, and incubated with anti-phospho-Akt antibody (S473) at 4° C. for about 8 hrs. […]

[3] = test system: Tie2 receptor; assay: Tie2 phosphorylation in HUVECs (immunoprecipitation/Western); assay type: cell-based, human; conditions: antibody 0.02-50 μg/ml with hAng2 1 μg/ml, 30 min
Procedure: Ang2 binds to the Tie2 receptor and acts as a weak agonist or antagonist. The anti-Ang2 antibody developed in this invention binds to Ang2 to induce Ang2-antibody complexes, further causing clustering of Tie2 receptors and consequently enhancing activation of Tie2 receptor. Experiments were conducted to analyze the effect of anti-Ang2 antibody on Tie2 phosphorylation using HUVECs.
Specifically, HUVECs (LONZA™) were cultured in EGM-2 (LONZA™) at 37° C. and 5% CO2 concentration in a 100 mm culture dish. At 80-90% confluency, the cells were changed to EBM-2 (LONZA™) medium for 2 hrs˜ 6 hrs for serum starvation. Humanized anti-Ang2 antibodies at various concentrations (0.02 μg/ml to 50 μg/ml) were mixed with hAng2 protein (1 μg/ml, R&D® Systems) for 30 min. Then, the mixtures were treated with the cultured cells and further incubated for 30 min. The cells were washed twice with cold PBS and then lysed in 1000 μl of lysis buffer (10 mM Tris-Cl pH 7.4, 150 mM NaCl, 5 mM EDTA, 10% glycerol, 1% TRITON™ X-100 (non-ionic polyoxyethylene surfactant), protease inhibitor, phosphatase inhibitor) and then lysed at 4° C. for 60 min. Cell extracts were prepared and centrifuged at 12,000 rpm for 10 min. The supernatant was quantitated by bicinchoninic (BCA) assay.
To 0.5 mg of cell lysate, 1 μg of Tie2 antibody (R&D® Systems, AF313) was added and incubated overnight at 4° C. […]

[4] = test system: Tie2 receptor clustering / FOXO1 translocation in HUVECs; assay: Tie2 clustering and FOXO1 translocation in HUVECs (immunofluorescence); assay type: cell-based, human; conditions: HUVECs, 30 min
Procedure: Tie2 clustering at cell-cell junction area and FOXO1 translocation from nucleus to cytosol by anti-Ang2 antibodies were examined in HUVECs by immunofluorescence. Specifically, HUVECs were seeded on 8 well slide chamber (Lab-Tek™ II) and maintained in EGM-2 medium for 2-3 days. At 100% confluence, the cells were serum starved with EBM-2 medium for 4 hrs and then treated with 1 μg/ml anti-Ang2 antibodies together with 1 μg/ml of hAng2 for 30 min. Thereafter, the cells were fixed with 4% formaldehyde in PBS at room temperature (RT) for 10 min, permeabilized with 0.1% TRITON™ X-100 (non-ionic polyoxyethylene surfactant) in PBS, blocked with 1% BSA in PBS at RT for 60 min, and incubated with primary antibodies at RT for 1 hr. The primary antibodies for hTie2, FOXO1, and Human Fc were used. The cells were then incubated with secondary antibodies (Invitrogen) in the dark at RT for 1 hr and mounted with VECTASHIELD® mounting medium with DAPI (Vector Labs, antifade mounting media optimized for immunofluorescence applications). Images were taken with a laser scanning confocal microscope (LSM880, Carl Zeiss).
2C8H11-induced Tie2 clustering and FOXO1 translocation was examined in a time-course study (from 10 min to 240 min). […] 6-4: Inhibition of Vascular Permeability by Humanized Anti-Ang2 Antibodies

[5] = test system: HUVEC monolayer; assay: In vitro vascular permeability (leakage) assay, TNF-α induced, FITC-dextran; assay type: cell-based, human; conditions: HUVECs; pre-treatment antibody 1 μg/ml with Ang2 1 μg/ml 30 min; TNF-α 100 ng/ml 22 hr
Procedure: Vascular leakage assay was carried out in HUVECs using In Vitro Vascular Permeability Assay Kit (Millipore®) according to the manufacturer's instruction. HUVECs were seeded into the insert of the transwell plate and cultured for 3 days for 100% confluence. The HUVECs were pre-incubated with Ang2 (1 μg/ml), Ang2 (1 μg/ml) together with Control, 2C8H11 or 4B9H11 antibody (1 μg/ml) for 30 min, and then TNF-α (100 ng/ml) was added, and the cells were incubated at 37° C. for 22 hr. FITC-dextran was added to the upper chamber and incubated for 20 min. Passage of FITC-dextran though the HUVEC monolayer was measured by a fluorescence reader at excitation and emission wavelengths of 485 and 535 nm, respectively.

[6] = molecular target: T1, hAng2; assay: OCTET affinity of humanized anti-Ang2 antibodies against hAng2; assay type: binding; conditions: humanized 4B9 antibodies (IgG1) fixed on AR2G biosensor; hAng2 50-0 nM

Molecule	tumor growth inhibition compared with Fc [1]	Akt phosphorylation [2]	phosphorylation of Tie2 [3]	co-localization of antibody with Tie2 receptor ([4]; anti-human Fc staining)	Tie2 translocation/clustering to cell-cell contact ([4]; antibodies 1 μg/ml with hAng2 1 μg/ml)	FOXO1 translocation from nucleus to cytosol ([4]; compared to serum-starved control)	vascular leakage induced by TNF-α (passage of FITC-dextran) [5]	Kdis [6] [s⁻¹]	Kon [6] [M⁻¹ s⁻¹]
N.N.[Cl][Pt][Cl] [Fc+Cpt, Cisplatin, reference compound]	similar	–	–	–	–	–	–	–	–
B1	–	increased markedly	strongly induced in a dose-dependent manner	co-localized with clustered Tie2 receptor at cell-cell contact and endocytosed Tie2 receptor in cytosol	induced Tie2 translocation/clustering to cell-cell contact	markedly disappeared in nucleus	significantly inhibited	1.58e-06	92900
